Source: publication PMC8945619

Molecular target: PECAM-1 (purified, immobilised on the sensor chip) (UniProt P16284)
Experiment: SPR

soluble CD177 in complex with proteinase 3 (sCD177/PR3), sequence (Q8N6Q3 22-408): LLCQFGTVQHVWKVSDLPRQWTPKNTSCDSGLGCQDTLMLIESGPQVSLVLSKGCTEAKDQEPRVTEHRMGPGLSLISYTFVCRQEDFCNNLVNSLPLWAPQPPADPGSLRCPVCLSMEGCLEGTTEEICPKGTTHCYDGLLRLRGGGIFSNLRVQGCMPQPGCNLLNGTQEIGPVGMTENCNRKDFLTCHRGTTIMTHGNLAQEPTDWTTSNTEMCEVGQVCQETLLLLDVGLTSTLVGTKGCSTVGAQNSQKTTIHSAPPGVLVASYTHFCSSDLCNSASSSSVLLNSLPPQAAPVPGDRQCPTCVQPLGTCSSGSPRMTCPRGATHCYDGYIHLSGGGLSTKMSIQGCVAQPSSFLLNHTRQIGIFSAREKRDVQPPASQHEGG
soluble CD177 in complex with proteinase 3 (sCD177/PR3), sequence (P24158 28-248): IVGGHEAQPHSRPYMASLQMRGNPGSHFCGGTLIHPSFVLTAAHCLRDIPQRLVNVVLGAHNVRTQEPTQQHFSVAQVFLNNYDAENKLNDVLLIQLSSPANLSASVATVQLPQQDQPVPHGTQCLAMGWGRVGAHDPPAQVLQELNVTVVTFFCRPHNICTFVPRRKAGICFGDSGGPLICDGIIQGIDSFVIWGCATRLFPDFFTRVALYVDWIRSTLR
recombinant proteinase 3 (rPR3), sequence (P24158 28-248): as above

| Kd [nM] | Substance |
| --- | --- |
| 49.8 | recombinant proteinase 3 (rPR3) (from UniProt P24158 28-248) (enzyme) |
| 7.39 | soluble CD177 in complex with proteinase 3 (sCD177/PR3) (from UniProt Q8N6Q3 22-408; P24158 28-248) |
